Results taken from article PMC7211935, “Development of a therapeutic anti-HtrA1 antibody and the identification of DKK3 as a pharmacodynamic biomarker in geographic atrophy” (Proceedings of the National Academy of Sciences of the …, 2020).

B1: human HtrA4-PD/PDZ (protease domain and PDZ domain) (domain or fragment)
chain: TGTRSAGPLRRNYNFIAAVVEKVAPSVVHVQLWGRLLHGSRLVPVYSGSGFIVSEDGLIITNAHVVRNQQWIEVVLQNGARYEAVVKDIDLKLDLAVIKIESNAELPVLMLGRSSDLRAGEFVVALGSPFSLQNTATAGIVSTKQRGGKELGMKDSDMDYVQIDATINYGNSGGPLVNLDGDVIGVNSLRVTDGISFAIPSDRVRQFLAEYHEHQMKGKAFSNKKYLGLQMLSLTVPLSEELKMHYPDFPDVSSGVYVCKVVEGTAAQSSGLRDHDVIVNINGKPITTTTDVVKALDSDSLSMAVLRGKDNLLLTVIPETIN
B2: human HtrA3-PD/PDZ (protease domain and PDZ domain) (domain or fragment)
chain: GLHQLSSPRYKFNFIADVVEKIAPAVVHIELFLRHPLFGRNVPLSSGSGFIMSEAGLIITNAHVVSSNSAAPGRQQLKVQLQNGDSYEATIKDIDKKSDIATIKIHPKKKLPVLLLGHSADLRPGEFVVAIGSPFALQNTVTTGIVSTAQREGRELGLRDSDMDYIQTDAIINYGNSGGPLVNLDGEVIGINTLKVTAGISFAIPSDRITRFLTEFQDKQIKDWKKRFIGIRMRTITPSLVDELKASNPDFPEVSSGIYVQEVAPNSPSQRGGIQDGDIIVKVNGRPLVDSSELQEAVLTESPLLLEVRRGNDDLLFSIAPEVVM

Experiments:
Assay in all cases: SEC; E. coli-expressed and purified human HtrA1- to 4-PD/PDZ constructs, purified as homotrimers by size-exclusion chromatography; conditions not shown (SI Appendix)
[1] = biological target: human HtrA1-PD/PDZ (N domain-deleted HtrA1, protease domain and PDZ domain) (human)
[2] = biological target: human HtrA2-PD/PDZ (protease domain and PDZ domain) (human)
[3] = biological target: the molecule itself

| Molecule | stoichiometry N [3] | also measured |
| --- | --- | --- |
| human HtrA1-PD/PDZ (N domain-deleted HtrA1, protease domain and PDZ domain) (domain or fragment) | – | stoichiometry N [1]: 3 |
| human HtrA2-PD/PDZ (protease domain and PDZ domain) (domain or fragment) | – | stoichiometry N [2]: 3 |
| B1 | 3 | – |
| B2 | 3 | – |
